Patent publication US20230374526A1, “FORSKOLIN-INDUCIBLE PROMOTERS AND HYPOXIA-INDUCIBLE PROMOTERS” (ASKLEPIOS BIOPHARMACEUTICAL, INC., priority 2020, published 2023)

Tests used:
[1] = cited from earlier work
HEK-293 cells = assay: Optimum inducer concentration to induce expression; assay type: cell-based, human
CHO-GS-KSV1 cell line = assay: SEAP expression from forskolin-inducible promoters in stably transfected cell line, forskolin or NKH477 induction; assay type: cell-based, chinese hamster; settings: for Promoter strength ranking: SEAP, stably transfected CHO-GS-KSV1
Procedure: The forskolin-inducible promoters were then tested in a stably transfected CHO-GS-KSV1 cell line.
Cell suspensions of 6×10^5 cells per mL were incubated on an orbital shaker set at 8% CO2, 20% O2, 37° C., 85% relative humidity and 140 rpm overnight. 2.86×10^7 cells were centrifuged at 200 g for 3 minutes. Media was then aspirated and cell pellet resuspended in 2 mL fresh CD-CHO media to obtain a concentration of 1.43×10^7 cells per mL. 700 μL of cell suspension was added to each of two electroporation cuvettes each containing […] of linearised DNA in 100 μL of sterile TE buffer (Thermofisher, 12090015). Each cuvette was electroporated, delivering a single pulse of 300V, 900 μF with resistance to infinity. Immediately after delivery of pulse electroplated cells were transferred to Erlenmeyer 125 mL flask containing 20 mL of CD-CHO media pre-warmed to 37° C. Electroporated cells from two cuvettes are combined into a single 125 mL flask to generate one pool of cells. Cells are cultured on an orbital shaker set at 8% CO2, 20% O2, 37° C., 85% relative humidity and 140 rpm. Cells are transferred to fresh CD-CHO media 24 hours after transfection and cell cultures monitored and given fresh CD-CHO media every 2-4 days. Usually after about 10-14 days cell numbers will be high enough to start passaging. […]
The promoter activity and inducibility of FMP-02, FORCSV-10, FOR-CMC-009, and FLP-01 were also tested in the stably transfected CHO-GS-KSV1 cell line. […] After this point, the SEAP activity in the medium was assessed as described below.
SEAP Reporter Gene Assay, chemiluminescent (Roche, CAT #11 779 842 001) was used to measure SEAP activity as per the manufacturer's protocol. […] The signal is then read at 477 nm and compared to a calibration curve. […]

HEK293-F cells = assay: Luciferase expression from forskolin-inducible promoters, transient transfection, forskolin induction; assay type: cell-based, human; settings: transiently transfected HEK293-F, 20 μM forskolin
Procedure: Luciferase readouts were normalised to β-galactosidase to produce normalised relative luminometer units (RLUs). β-galactosidase containing pcDNA6 plasmid was used as internal control for transfection efficiency (Thermofisher, V22020). β-galactosidase activity was measured as per manufacturer's instructions (Mammalian pGalactosidase Assay Kit, 75707/75710, Thermo Scientific) using 25 μl of lysate. 25 μl of lysate was transferred into a microplate well and mixed with 25 μl of β-galactosidase Assay Reagent, equilibrated to room temperature. The mixture was incubated at 37° C. for 30 min and absorbance measured at 405 nm.
The tested promoters were synthesised directly upstream of the ATG of PM-RQ plasmid and the suspension cell lines were transiently transfected with the PM-RQ plasmid.
40 ml of cells were grown in a 250 ml vented Erlenmeyer flask (Sigma-Aldrich CLS431144) at 37° C., 20% O2, 8% CO2 with agitation at 100 rpm. Cells were seeded as described in the manufacturer's instructions (300,000 cells/ml). HEK293-F were obtained from Thermofisher, R79007.
One day before transfection, the cells were counted using a haemocytometer and split to 500,000 cells/ml. […]
24 hours after transfection, the promoters were induced by addition of 20 μM forskolin and luciferase activity was measured 0, 3, 5 and 24 hours after induction. Luciferase activity was measured as described below. […]

## C=C[C@@]1(C)CC(=O)[C@]2(O)[C@@]3(C)[C@@H](O)CCC(C)(C)[C@@H]3[C@H](OC(=O)CCN(C)C)[C@H](OC(C)=O)[C@@]2(C)O1.Cl [NKH 477]
[1]
  Water solubility: water-soluble
HEK-293 cells
  Concentration determined to be optimum to induce expression: about 8 μM
CHO-GS-KSV1 cell line; 7.2 μM NKH477 vs 20 μM forskolin
  Potency as inducer of the promoters compared with forskolin: slightly more potent inducer

B1: FLP-01: synthetic forskolin-inducible promoter, SEQ ID NO: 42; 8×AP1(1) TFBS with G6PC minimal promoter (nucleic acid)
DNA: TGAGTCAGATGATGCGTAGCTAGTAGTTGAGTCAGATGATGCGTAGCTAGTAGTTGAGTCAGATGATGCGTAGCTAGTAGTTGAGTCAGATGATGCGTAGCTAGTAGTTGAGTCAGATGATGCGTAGCTAGTAGTTGAGTCAGATGATGCGTAGCTAGTAGTTGAGTCAGATGATGCGTAGCTAGTAGTTGAGTCAGTAGTCGTATGCTGATGCGCAGTTAGCGTAGCTGAGGTACCGTCGACGATATCGGATCCGGGCATATAAAACAGGGGCAAGGCACAGACTCATAGCAGAGCAATCACCACCAAGCCTGGAATAACTGCAGCCACC
modifications: Synp-FLP-01
notes: 8×AP1(1) TFBS with G6PC minimal promoter
CHO-GS-KSV1 cell line
  Promoter strength ranking: strongest
HEK293-F cells
  Promoter strength ranking (fold induction): strongest

B2: FMP-02: synthetic forskolin-inducible promoter, SEQ ID NO: 41; 8×AP1(1) TFBS with MinTK minimal promoter (nucleic acid)
DNA: TGAGTCAGATGATGCGTAGCTAGTAGTTGAGTCAGATGATGCGTAGCTAGTAGTTGAGTCAGATGATGCGTAGCTAGTAGTTGAGTCAGATGATGCGTAGCTAGTAGTTGAGTCAGATGATGCGTAGCTAGTAGTTGAGTCAGATGATGCGTAGCTAGTAGTTGAGTCAGATGATGCGTAGCTAGTAGTTGAGTCAGTAGTCGTATGCTGATGCGCAGTTAGCGTAGCTGAGGTACCGTCGACGATATCGGATCCTTCGCATATTAAGGTGACGCGTGTGGCCTCGAACACCGAGCGACCCTGCAGCGACCCGCTTAA
modifications: Synp-FMP-02
notes: 8×AP1(1) TFBS with MinTK minimal promoter
CHO-GS-KSV1 cell line
  Promoter strength ranking: weakest
HEK293-F cells
  Promoter strength ranking (fold induction): weakest
